The record followed here is the Human Domainome abundance scans (Beltran et al. 2025).

The chains are these.
B1: Double-stranded RNA-specific adenosine deaminase, residues 296 to 358; numbered along this chain, P55265 (parent)
chain: MAEIKEKICDYLFNVSDSSALNLAKNIGLTKARDINAVLIDMERQGDVYRQGTTPPIWHLTDK

± gives the uncertainty stated by the source.

The variants in this data set derive from B1. The data set is described as follows: abundance fitness (aPCA) (normalised: wild type 0, dead -1); higher = more abundant; growth selection in yeast, the domain comes from the species named. Conditions: Homo sapiens.
MAEIKMKICDYLFNVSDSSALNLAKNIGLTKARDINAVLIDMERQGDVYRQGTTPPIWHLTDK: the abundance fitness is -0.25 ± 0.1. In the case of MAEIKLKICDYLFNVSDSSALNLAKNIGLTKARDINAVLIDMERQGDVYRQGTTPPIWHLTDK it was -0.57 ± 0.068; in that of MAEIKFKICDYLFNVSDSSALNLAKNIGLTKARDINAVLIDMERQGDVYRQGTTPPIWHLTDK, -0.839 ± 0.27; in that of MAEIKQKICDYLFNVSDSSALNLAKNIGLTKARDINAVLIDMERQGDVYRQGTTPPIWHLTDK, -0.03 ± 0.087. For the variant MAEIKPKICDYLFNVSDSSALNLAKNIGLTKARDINAVLIDMERQGDVYRQGTTPPIWHLTDK, the abundance fitness is -0.831 ± 0.13.

In the case of MAEIKNKICDYLFNVSDSSALNLAKNIGLTKARDINAVLIDMERQGDVYRQGTTPPIWHLTDK, the abundance fitness is -0.428 ± 0.12.

Take MAEIKGKICDYLFNVSDSSALNLAKNIGLTKARDINAVLIDMERQGDVYRQGTTPPIWHLTDK: the abundance fitness is -0.246 ± 0.056. In the case of MAEIKKKICDYLFNVSDSSALNLAKNIGLTKARDINAVLIDMERQGDVYRQGTTPPIWHLTDK it was 0.056 ± 0.23; in that of MAEIKEKICTYLFNVSDSSALNLAKNIGLTKARDINAVLIDMERQGDVYRQGTTPPIWHLTDK, -0.157 ± 0.053; in that of MAEIKEKICEYLFNVSDSSALNLAKNIGLTKARDINAVLIDMERQGDVYRQGTTPPIWHLTDK, 0 ± 0.075. The same measure for MAEIKEKICNYLFNVSDSSALNLAKNIGLTKARDINAVLIDMERQGDVYRQGTTPPIWHLTDK: 0.085 ± 0.077; for MAEIKEKICWYLFNVSDSSALNLAKNIGLTKARDINAVLIDMERQGDVYRQGTTPPIWHLTDK: -0.297 ± 0.073. The same measure for MAEIKEKICMYLFNVSDSSALNLAKNIGLTKARDINAVLIDMERQGDVYRQGTTPPIWHLTDK: -0.44 ± 0.074; for MAEIKEKICFYLFNVSDSSALNLAKNIGLTKARDINAVLIDMERQGDVYRQGTTPPIWHLTDK: -0.653 ± 0.17; for MAEIKEKICHYLFNVSDSSALNLAKNIGLTKARDINAVLIDMERQGDVYRQGTTPPIWHLTDK: 0.011 ± 0.1. With MAEIKEKICRYLFNVSDSSALNLAKNIGLTKARDINAVLIDMERQGDVYRQGTTPPIWHLTDK, the abundance fitness was 0.051 ± 0.04. With MAEIKEKICAYLFNVSDSSALNLAKNIGLTKARDINAVLIDMERQGDVYRQGTTPPIWHLTDK, the abundance fitness is -0.021 ± 0.041.

In the case of MAEIKEKICLYLFNVSDSSALNLAKNIGLTKARDINAVLIDMERQGDVYRQGTTPPIWHLTDK, the abundance fitness is -0.568 ± 0.053. In the case of MAEIKEKICYYLFNVSDSSALNLAKNIGLTKARDINAVLIDMERQGDVYRQGTTPPIWHLTDK it was -0.453 ± 0.17; in that of MAEIKEKICGYLFNVSDSSALNLAKNIGLTKARDINAVLIDMERQGDVYRQGTTPPIWHLTDK, -0.514 ± 0.073; in that of MAEIKEKICQYLFNVSDSSALNLAKNIGLTKARDINAVLIDMERQGDVYRQGTTPPIWHLTDK, 0.051 ± 0.058. MAEIKEKICIYLFNVSDSSALNLAKNIGLTKARDINAVLIDMERQGDVYRQGTTPPIWHLTDK: the abundance fitness is -0.502 ± 0.16. In the case of MAEIKEKICSYLFNVSDSSALNLAKNIGLTKARDINAVLIDMERQGDVYRQGTTPPIWHLTDK it was 0.05 ± 0.045; in that of MAEIKEKFCDYLFNVSDSSALNLAKNIGLTKARDINAVLIDMERQGDVYRQGTTPPIWHLTDK, -0.506 ± 0.19. With MAEIKEKDCDYLFNVSDSSALNLAKNIGLTKARDINAVLIDMERQGDVYRQGTTPPIWHLTDK, the abundance fitness turned out to be 0.302 ± 0.3. For the variant MAEIKEKRCDYLFNVSDSSALNLAKNIGLTKARDINAVLIDMERQGDVYRQGTTPPIWHLTDK, the abundance fitness was -0.374 ± 0.11.

In the case of MAEIKEKQCDYLFNVSDSSALNLAKNIGLTKARDINAVLIDMERQGDVYRQGTTPPIWHLTDK, the abundance fitness is -0.137 ± 0.11. In the case of MAEIKEKKCDYLFNVSDSSALNLAKNIGLTKARDINAVLIDMERQGDVYRQGTTPPIWHLTDK it was -0.568 ± 0.12; in that of MAEIKEKVCDYLFNVSDSSALNLAKNIGLTKARDINAVLIDMERQGDVYRQGTTPPIWHLTDK, -0.649 ± 0.29; in that of MAEIKEKNCDYLFNVSDSSALNLAKNIGLTKARDINAVLIDMERQGDVYRQGTTPPIWHLTDK, -0.543 ± 0.4. The same measure for MAEIKEKTCDYLFNVSDSSALNLAKNIGLTKARDINAVLIDMERQGDVYRQGTTPPIWHLTDK: -0.713 ± 0.14; for MAEIKEKWCDYLFNVSDSSALNLAKNIGLTKARDINAVLIDMERQGDVYRQGTTPPIWHLTDK: -1.3 ± 0.38. In the case of MAEIKEKECDYLFNVSDSSALNLAKNIGLTKARDINAVLIDMERQGDVYRQGTTPPIWHLTDK, the abundance fitness is -0.374 ± 0.074. In the case of MAEIKEKPCDYLFNVSDSSALNLAKNIGLTKARDINAVLIDMERQGDVYRQGTTPPIWHLTDK it was -0.455 ± 0.18; in that of MAEIKEKSCDYLFNVSDSSALNLAKNIGLTKARDINAVLIDMERQGDVYRQGTTPPIWHLTDK, -0.304 ± 0.15. In the case of MAEIKEKLCDYLFNVSDSSALNLAKNIGLTKARDINAVLIDMERQGDVYRQGTTPPIWHLTDK it was -0.903 ± 0.17; in that of MAEIKEKGCDYLFNVSDSSALNLAKNIGLTKARDINAVLIDMERQGDVYRQGTTPPIWHLTDK, -0.471 ± 0.096; in that of MAEIKEKACDYLFNVSDSSALNLAKNIGLTKARDINAVLIDMERQGDVYRQGTTPPIWHLTDK, -0.564 ± 0.13. The same measure for MAEIKEKHCDYLFNVSDSSALNLAKNIGLTKARDINAVLIDMERQGDVYRQGTTPPIWHLTDK: -0.766 ± 0.2; for MAEIKEKICDELFNVSDSSALNLAKNIGLTKARDINAVLIDMERQGDVYRQGTTPPIWHLTDK: -0.035 ± 0.05.

Turning to MAEIKEKICDALFNVSDSSALNLAKNIGLTKARDINAVLIDMERQGDVYRQGTTPPIWHLTDK, the abundance fitness was -0.126 ± 0.047. In the case of MAEIKEKICDCLFNVSDSSALNLAKNIGLTKARDINAVLIDMERQGDVYRQGTTPPIWHLTDK it was -0.22 ± 0.076; in that of MAEIKEKICDDLFNVSDSSALNLAKNIGLTKARDINAVLIDMERQGDVYRQGTTPPIWHLTDK, -0.488 ± 0.087.
